T1: mouse Mp1 expressed on CHO cells (CHO-mouse Mp1) (mouse, UniProt Q08351 26-625)
T1 construct: whole, on cells; also called mouse Mp1-expressing CHO cell line
T1 sequence (looked up): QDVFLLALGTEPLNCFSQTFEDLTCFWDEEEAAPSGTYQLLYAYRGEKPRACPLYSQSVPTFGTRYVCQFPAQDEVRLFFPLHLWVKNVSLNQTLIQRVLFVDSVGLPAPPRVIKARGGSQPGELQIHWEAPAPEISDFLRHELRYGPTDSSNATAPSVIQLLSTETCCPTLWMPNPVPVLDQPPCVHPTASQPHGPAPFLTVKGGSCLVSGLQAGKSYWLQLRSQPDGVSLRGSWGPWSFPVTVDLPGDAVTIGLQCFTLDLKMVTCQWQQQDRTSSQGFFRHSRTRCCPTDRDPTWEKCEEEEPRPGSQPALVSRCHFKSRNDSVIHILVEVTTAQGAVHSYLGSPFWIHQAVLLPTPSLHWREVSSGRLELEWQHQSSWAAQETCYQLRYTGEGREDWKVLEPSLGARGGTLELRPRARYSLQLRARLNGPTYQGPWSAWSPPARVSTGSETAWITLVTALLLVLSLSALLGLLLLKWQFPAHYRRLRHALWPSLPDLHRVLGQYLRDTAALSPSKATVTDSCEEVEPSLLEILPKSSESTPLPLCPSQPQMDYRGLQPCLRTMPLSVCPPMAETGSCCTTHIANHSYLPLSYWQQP

T2: cynomolgus monkey Mp1 expressed on CHO cells (CHO-monkey Mp1) (cynomolgus monkey, UniProt P40238 26-635 (human entry))
T2 construct: also called monkey Mp1-expressing CHO cell line
T2 chain: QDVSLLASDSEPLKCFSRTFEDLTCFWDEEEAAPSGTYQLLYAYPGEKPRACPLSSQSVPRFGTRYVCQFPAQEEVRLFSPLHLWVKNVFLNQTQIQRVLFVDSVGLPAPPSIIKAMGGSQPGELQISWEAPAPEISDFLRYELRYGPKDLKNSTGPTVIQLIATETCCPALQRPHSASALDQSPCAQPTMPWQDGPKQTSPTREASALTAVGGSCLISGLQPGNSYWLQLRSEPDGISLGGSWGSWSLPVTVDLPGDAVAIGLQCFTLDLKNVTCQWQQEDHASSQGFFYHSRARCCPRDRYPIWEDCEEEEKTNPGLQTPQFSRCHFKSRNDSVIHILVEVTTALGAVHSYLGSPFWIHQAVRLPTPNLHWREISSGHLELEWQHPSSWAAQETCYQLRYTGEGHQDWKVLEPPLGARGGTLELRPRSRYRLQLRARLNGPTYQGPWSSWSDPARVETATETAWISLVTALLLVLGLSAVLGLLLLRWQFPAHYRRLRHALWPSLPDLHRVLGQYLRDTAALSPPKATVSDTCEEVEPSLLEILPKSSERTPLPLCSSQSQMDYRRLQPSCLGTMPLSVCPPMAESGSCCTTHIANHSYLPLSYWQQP

T3: GST fusion protein containing MG8 (Gln26 to Pro217) of human Mp1 (human, UniProt P40238 26-217)
T3 construct: range 26-217; not shown: glutathione S-transferase (GST) encoded by vector pGEX-4T-3 (Amersham Biosciences)
T3 sequence (looked up): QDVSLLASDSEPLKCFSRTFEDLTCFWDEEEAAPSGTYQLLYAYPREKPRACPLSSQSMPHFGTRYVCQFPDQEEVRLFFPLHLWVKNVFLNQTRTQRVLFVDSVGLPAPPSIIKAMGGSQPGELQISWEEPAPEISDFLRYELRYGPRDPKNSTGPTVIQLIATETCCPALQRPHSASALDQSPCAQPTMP

T4: GST fusion protein containing MG4 (Gln26 to Pro106) of human Mp1 (human, UniProt P40238 26-106)
T4 construct: range 26-106; not shown: glutathione S-transferase (GST) encoded by vector pGEX-4T-3 (Amersham Biosciences)
T4 sequence (looked up): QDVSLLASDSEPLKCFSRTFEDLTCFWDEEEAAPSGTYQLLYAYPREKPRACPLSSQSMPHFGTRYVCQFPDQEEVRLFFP

T5: GST fusion protein containing MG3 (Gln26 to Ala189) of human Mp1 (human, UniProt P40238 26-189)
T5 construct: range 26-189; not shown: glutathione S-transferase (GST) encoded by vector pGEX-4T-3 (Amersham Biosciences)
T5 sequence (looked up): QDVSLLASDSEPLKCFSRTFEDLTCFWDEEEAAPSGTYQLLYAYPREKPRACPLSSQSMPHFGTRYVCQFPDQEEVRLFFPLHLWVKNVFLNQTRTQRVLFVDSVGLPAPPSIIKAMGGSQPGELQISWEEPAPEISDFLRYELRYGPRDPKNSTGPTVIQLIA

T6: human Mp1-IgG Fc fusion protein (human, UniProt P40238 26-491)
T6 construct: range 26-491; Expressed in CHO-DG44 with a 19-amino acid signal peptide from a human IgG H chain variable region, left out here; also called hMp1-Fc; hMPL-Fc; not shown: Fc region of human IgG-gamma1 (a region downstream of Asp 216)
T6 sequence: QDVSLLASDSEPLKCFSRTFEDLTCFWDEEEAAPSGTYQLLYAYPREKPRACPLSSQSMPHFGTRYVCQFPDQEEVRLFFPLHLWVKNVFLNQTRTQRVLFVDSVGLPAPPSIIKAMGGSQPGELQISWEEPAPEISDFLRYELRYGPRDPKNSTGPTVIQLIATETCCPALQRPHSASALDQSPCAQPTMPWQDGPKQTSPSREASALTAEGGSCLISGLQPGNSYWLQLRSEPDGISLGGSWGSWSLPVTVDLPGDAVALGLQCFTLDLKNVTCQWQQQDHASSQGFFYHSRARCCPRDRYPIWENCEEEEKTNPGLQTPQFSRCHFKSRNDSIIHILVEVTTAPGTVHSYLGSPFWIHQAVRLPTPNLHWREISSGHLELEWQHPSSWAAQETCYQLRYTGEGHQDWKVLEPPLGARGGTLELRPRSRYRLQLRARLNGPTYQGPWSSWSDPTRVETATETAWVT

T7: human Mp1 expressed on CHO cells (CHO-human Mp1) (human, UniProt P40238 26-635)
T7 construct: whole, on cells; also called human Mp1-expressing CHO cell line
T7 sequence (looked up): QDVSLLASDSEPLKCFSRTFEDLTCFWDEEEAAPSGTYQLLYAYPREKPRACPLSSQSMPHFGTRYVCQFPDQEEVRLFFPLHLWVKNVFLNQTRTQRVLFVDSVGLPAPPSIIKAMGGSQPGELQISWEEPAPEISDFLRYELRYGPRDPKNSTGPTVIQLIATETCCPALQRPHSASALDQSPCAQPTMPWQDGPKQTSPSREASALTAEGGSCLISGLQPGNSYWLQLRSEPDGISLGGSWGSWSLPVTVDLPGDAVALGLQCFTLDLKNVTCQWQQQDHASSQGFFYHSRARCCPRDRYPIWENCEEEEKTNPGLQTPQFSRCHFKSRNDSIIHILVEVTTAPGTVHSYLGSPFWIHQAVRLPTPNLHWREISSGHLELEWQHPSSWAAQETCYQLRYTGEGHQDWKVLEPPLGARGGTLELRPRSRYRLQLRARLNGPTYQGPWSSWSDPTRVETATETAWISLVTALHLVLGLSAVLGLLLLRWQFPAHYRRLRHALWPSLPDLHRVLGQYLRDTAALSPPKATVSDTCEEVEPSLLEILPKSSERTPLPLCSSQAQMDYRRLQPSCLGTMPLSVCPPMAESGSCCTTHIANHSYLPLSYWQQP


What was measured:
[1] = target: T1, mouse Mp1 expressed on CHO cells …; assay: flow cytometry on CHO cells expressing Mp1
[2] = target: T2, cynomolgus monkey Mp1 expressed on CHO …; assay: flow cytometry on CHO cells expressing Mp1
[3] = target: T3, GST fusion protein containing MG8 …; assay: Western blotting of GST fusion proteins
Description: (§1) Since the anti-human Mp1 antibody VB22B can be used for Western blotting, a GST-fusion protein containing a partial sequence of human Mp1 was constructed for VB22B epitope analysis. MG1 (Gln26 to Trp491) and MG2 (Gln26 to Leu274) regions were each amplified by PCR, and cloned into pGEX-4T-3 (Amersham Biosciences) to be expressed as GST fusion proteins. The resulting plasmid DNAs were transformed into DH5α to give transformants. A final concentration of 1 mM IPTG was added to the transformants in their logarithmic growth phase to induce the expression of GST fusion proteins. The bacterial cells were harvested after two hours of incubation. The cells were lysed by sonication. The lysates were centrifuged in XL-80 Ultracentrifuge (Beckman, Rotor 70.1Ti) at 35,000 rpm for 30 min. The culture supernatants were removed, and then the fusion proteins were purified using GST Purification Modules (Amersham Biosciences). The samples were separated by 10%-SDS-PAGE, and then transferred onto a PVDF membrane. The membrane was analyzed by the murine antibody VB22B in Western blotting.
(§2) Then, GST fusion proteins containing the respective regions of human Mp1: MG3 (Gln26 to Ala189), MG4 (Gln26 to Pro106), MG5 (Gln26 to Glu259), and MG6 (Gln26 to Gly245) were prepared and analyzed by Western blotting using the same procedure described above. […] In addition, GST was fused with MG7 (Gln26 to Ala231) and MG8 (Gln26 to Pro217) to prepare GST fusion proteins.

[4] = target: T4, GST fusion protein containing MG4 …; assay: Western blotting of GST fusion proteins
Description: as §1, §2

[5] = target: T5, GST fusion protein containing MG3 …; assay: Western blotting of GST fusion proteins
Description: as §1, §2

[6] = target: T6, human Mp1-IgG Fc fusion protein; assay: SPR (Biacore 2000), hMp1-Fc amine-coupled to CM5 chip, VB22B IgG injected at 1.25 to 20 ug/mL
Description: Since the anti-human Mp1 antibody VB22B binds to soluble recombinant Mp1, kinetic analyses of the antigen-antibody reaction between VB22B IgG and human Mp1-IgG Fc fusion protein were carried out as described in Example 1.4. The Sensor Chip CM5 (Biacore) was placed in Biacore 2000 (Biacore), and human Mp1-IgG Fc fusion protein was immobilized onto the chip by amine-coupling methods. Then, 1.25 to 20 μg/mL of VB22B IgG solution was prepared using HBS-EP Buffer (Biacore), and injected over the chip surface for 2 min to reveal the binding region. Then, HBS-EP Buffer was injected over the chip surface for 2 min to reveal the dissociation region. VB22B IgG bound to the human Mp1-IgG Fc fusion protein on the sensor chip was removed by injecting 10 mM NaOH over the sensor chip for 15 sec, and the chip was recovered. HBS-EP Buffer was used as the running buffer, and the flow rate was 20 μL/min. Using the BIAevaluation Version 3.1 (Biacore) software, the reaction rate constant at each concentration was calculated from the sensorgrams.

[7] = target: T7, human Mp1 expressed on CHO cells …; assay: flow cytometry on CHO cells expressing Mp1, detection with anti-FLAG M2 and FITC anti-mouse IgG
Description: (§3) CHO-human Mp1, CHO-monkey Mp1, and CHO-mouse Mp1 cells were recovered and suspended in FACS buffer (1% FBS/PBS) to a final concentration of 1×10⁶ cells/mL. Cell suspensions were aliquoted at 100-μL/well into the Multiscreen-HV Filter Plates (Millipore). After centrifugation, the supernatant was removed. An appropriate concentration of diabody or sc(Fv)2 was added into each well and incubated on ice for 30 min. The cells were washed once with 200 μL of FACS buffer, and incubated on ice for 30 min following the addition of 10 μg/mL ANTI-FLAG® M2 Monoclonal Antibody (Sigma-Aldrich). The cells were then washed once with 200 μL of FACS buffer, and a 100×-diluted FITC-labeled anti-mouse IgG antibody (Beckman Coulter) was added to the plate. The plate was incubated on ice for 30 min. After centrifugation, the supernatant was removed. The cells were suspended in 400 μL of FACS Buffer, and then analyzed by flow cytometry using EPICS ELITE ESP (Beckman Coulter). An analysis gate was set on the forward and side scatters of a histogram to include viable cell populations.
(§4) The binding activity of the purified VB22B sc(Fv)2 to various Mp1 molecules expressed in CHO cells was determined.

[8] = target: T2, cynomolgus monkey Mp1 expressed on CHO …; assay: as above
Description: as §3, §4

binding result [1]	binding result [2]	binding result [3]	binding result [4]	binding result [5]	Kd [6] [nM]	binding result [7]	binding result [8]	Binder
no binding	binds	no binding	no binding	no binding	1.67			anti-human Mp1 antibody VB22B (VB22B IgG) (antibody, V domains shown, Mouse monoclonal IgG purified from hybridoma supernatant; They were cloned with primers complementary to the mouse IgG2b and kappa constant regions; also called murine antibody VB22B) VH: QVQLQQSGPELVKPGASVKISCKASGYAFTNSWMNWVKQRPGKGLEWIGRIYPGDGETIYNGKFRVKATLTADKSSSTAYMDISSLTSEDSAVYFCARGYDDYSFAYWGQGTLVTVSA VL: DIVMTQAAPSIPVTPGESVSISCRSSKSLLHSNGNTYLYWFLQRPGQSPQLLIYRMSNLASGVPDRFSGSGSGTAFTLRISRVEAEDVGVYYCMQHIEYPFTFGSGTKLEIK
no binding						binds	binds	Murine VB22B sc(Fv)2 (scFv, Single chain sc(Fv)2, VH-(Gly4Ser)3-VL-(Gly4Ser)3-VH-(Gly4Ser)3-VL, with a FLAG tag (detected with anti-FLAG M2); also called mVB22B) scFv: QVQLQQSGPELVKPGASVKISCKASGYAFTNSWMNWVKQRPGKGLEWIGRIYPGDGETIYNGKFRVKATLTADKSSSTAYMDISSLTSEDSAVYFCARGYDDYSFAYWGQGTLVTVSAGGGGSGGGGSGGGGSDIVMTQAAPSIPVTPGESVSISCRSSKSLLHSNGNTYLYWFLQRPGQSPQLLIYRMSNLASGVPDRFSGSGSGTAFTLRISRVEAEDVGVYYCMQHIEYPFTFGSGTKLEIKGGGGSGGGGSGGGGSQVQLQQSGPELVKPGASVKISCKASGYAFTNSWMNWVKQRPGKGLEWIGRIYPGDGETIYNGKFRVKATLTADKSSSTAYMDISSLTSEDSAVYFCARGYDDYSFAYWGQGTLVTVSAGGGGSGGGGSGGGGSDIVMTQAAPSIPVTPGESVSISCRSSKSLLHSNGNTYLYWFLQRPGQSPQLLIYRMSNLASGVPDRFSGSGSGTAFTLRISRVEAEDVGVYYCMQHIEYPFTFGSGTKLEIK

— patent publication US20090117097A1 (Chugai, published 2009)
